Measured values: patent US20140056903A1 (Regeneron, published 2014)
Positions count from the first letter of the chain named. Names may count otherwise.

T1: cynomolgus GFRα3 on HEK293/MfGFRα3/MfRet/SRE-Luc cells (cynomolgus, UniProt O60609 1-400 (human entry), limits assumed)
T1 chain: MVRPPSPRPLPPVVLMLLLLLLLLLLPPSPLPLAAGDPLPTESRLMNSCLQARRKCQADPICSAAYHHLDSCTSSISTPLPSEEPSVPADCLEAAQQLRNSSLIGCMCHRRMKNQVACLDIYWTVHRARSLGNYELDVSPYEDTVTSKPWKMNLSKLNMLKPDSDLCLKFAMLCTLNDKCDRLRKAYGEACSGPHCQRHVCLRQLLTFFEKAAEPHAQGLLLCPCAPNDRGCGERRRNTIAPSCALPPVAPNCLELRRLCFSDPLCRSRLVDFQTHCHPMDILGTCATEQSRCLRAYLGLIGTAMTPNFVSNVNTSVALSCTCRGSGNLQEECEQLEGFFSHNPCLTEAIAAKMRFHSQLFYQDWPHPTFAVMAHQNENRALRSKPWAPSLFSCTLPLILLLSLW

T2: human GFRα2 expressed with a C-terminal human Fc tag and a hexahistidine tag (human, UniProt O00451 22-441, limits assumed)
T2 construct: bought protein; also called hGFRα2-hFc-6His; hGFRα2-hFc-6his
T2 sequence (looked up): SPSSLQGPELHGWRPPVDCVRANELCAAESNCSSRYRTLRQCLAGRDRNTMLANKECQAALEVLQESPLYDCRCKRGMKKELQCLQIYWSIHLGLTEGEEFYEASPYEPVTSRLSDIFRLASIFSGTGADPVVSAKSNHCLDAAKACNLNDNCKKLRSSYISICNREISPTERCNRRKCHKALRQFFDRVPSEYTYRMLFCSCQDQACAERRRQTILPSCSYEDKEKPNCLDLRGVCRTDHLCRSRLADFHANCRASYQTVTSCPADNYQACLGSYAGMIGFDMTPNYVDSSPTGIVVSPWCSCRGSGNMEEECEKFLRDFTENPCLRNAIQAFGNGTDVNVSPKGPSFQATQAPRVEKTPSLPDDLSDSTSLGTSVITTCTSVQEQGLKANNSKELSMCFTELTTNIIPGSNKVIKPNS

T3: human GFRα1 expressed with a C-terminal human Fc tag and a hexahistidine tag (human, UniProt P56159 25-429, limits assumed)
T3 construct: bought protein; also called hGFRα1-hFc-6His; hGFRα1-hFc-6his
T3 sequence (looked up): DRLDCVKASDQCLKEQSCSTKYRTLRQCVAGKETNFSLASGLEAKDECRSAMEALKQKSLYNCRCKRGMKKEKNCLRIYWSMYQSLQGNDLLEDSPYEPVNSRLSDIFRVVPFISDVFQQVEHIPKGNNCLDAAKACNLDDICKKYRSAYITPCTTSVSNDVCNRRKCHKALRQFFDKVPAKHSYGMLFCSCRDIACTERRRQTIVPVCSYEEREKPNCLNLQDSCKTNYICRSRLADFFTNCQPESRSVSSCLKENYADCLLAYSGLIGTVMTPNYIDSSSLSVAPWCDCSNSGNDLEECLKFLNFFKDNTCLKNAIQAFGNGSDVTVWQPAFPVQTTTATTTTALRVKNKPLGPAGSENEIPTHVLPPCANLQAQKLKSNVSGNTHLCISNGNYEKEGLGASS

B1: H4H2212N (antibody, human IgG4, V domains shown)
VH: EVQLLESGGGLVQPGGSLRLSCAASGFTFSSYAMSWVRQGPGKGLEWVSGISGSGGSTYNADSVKGRFTISRDNSKNTLYLQMNSLRAEDTAVYYCAKDSGTYWYYFDYWGQGILVTVSS
VL: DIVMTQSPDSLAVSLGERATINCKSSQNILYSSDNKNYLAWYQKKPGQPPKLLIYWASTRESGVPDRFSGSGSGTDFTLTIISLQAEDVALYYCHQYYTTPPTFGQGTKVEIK
notes: human IgG4 Fc (H4H)
B2: H4H2342P (antibody, human IgG4, V domains shown)
VH: EVQLLESGGGLVQPGGSLRLSCAASGFTFSTYAMSWVRQAPGKGLEWVSAIRGNGVNTYYGDSMKGRFTISRDNSKDTLYLQMNSLRAEDTAVYYCAKNKWELLVFEYWGQGTLVTVSS
VL: DIQMTQSPSSLSASVGDRVTITCRASQDISNYLAWYQQKPGKVPKLLIYAASTLQSGVPFRFSGSGSGTDFTLTISSLQPEDVATYYCQKYNSAPPFGPGTKVDIK
notes: human IgG4 Fc (H4H)
B3: H4H2292S (antibody, human IgG4, V domains shown)
VH: EVQLVESGGGVVQPGRSLRLSCAASGFTFSSYGMHWVRQAPGKGLEWVSFIWYDGSNKYYADSVKGRFTISRDNSKNTLYLQMNSLTAEDTAVYYCARRGILTGTTAFDIWGQGTMVTVSS
VL: DIQMTQSPSSLSASVGDRVTITCRASQSISSYLNWYQQKPGKAPKLLIYAASSLQSGVPSRFSGSGSGTDFTLTIRSLIPEDFATYYCQQTYNTPFTFGPGTKVEIK
notes: human IgG4 Fc (H4H)
B4: H4H2243N2 (antibody, human IgG4, V domains shown)
VH: QVQLVQSGAEVKKPGASVKVSCKASGYTFTSYGIIWVRQAPGQGLEWMGWISGYNGNTNYAQNLQGRVTMTTDTSTTTAYMELRSLRSDDTAVYYCARWGIATRPYYYYGMDVWGQGTTVTVSS
VL: DIQMTQSPSSLSASVGDRVTITCRASQDITNYLAWFQQKPGKAPKSLIYAASSLQSGVPSKFSGSGSGTDFTLTISSLQPEDFATYYCQQYNSYPPTFGPGTKVDIK
notes: human IgG4 Fc (H4H)
B5: H4H2294S (antibody, human IgG4, V domains shown)
VH: EVQLVESGGGLVQPGGSLRLSCAASGFTFSSYAMSWVRQAPGKGLEWVSVISGSGGSTYYADAVKGRFTISRDNSKHTLYLQMNSLRAEDTAVYYCTKPSSYSSSNFYYGMDVWGQGSTVTVSS
VL: DIQLTQSPSSVSASVGDRVTITCRASQGISSWLAWYQQKPGKAPKLLIYAASSLQSGVPSRFSGSGSGTDFTLTISSLQPEDFATYYCQQTNSFPFPFGPGTKVDIK
notes: human IgG4 Fc (H4H)
B6: H4H2344S (antibody, human IgG4, V domains shown)
VH: EVQLVESGGGVVQPGRSLRLSCAASGFSFSDYVMHWVRQAPGKGLEWVASIWFDGSNEFYADSVKGRFTISRDNSKNTLFLQMNSLRAEDTAVYYCAKKGVLVATSAFDIWGQGTMVTVSS
VL: DIQMTQSPSSLSASVGDRVTITCRASQSINNYLNWYHQKPGKAPKLLIYAASSLQSGVPSRFSGSGSGTDYTLTISSLQPEDFGNYYCQQSYRTSMYTFGQGTKVEIK
notes: human IgG4 Fc (H4H)
B7: H4H2346S (antibody, human IgG4, V domains shown)
VH: B6 VH with E1Q
VL: B6 VL with D1E, Q3V
notes: human IgG4 Fc (H4H)
B8: H4H2293P (antibody, human IgG4, V domains shown)
VH: B6 VH with E1Q, F59L, D109H
VL: B6 VL with D1A, S28N, K45N, R93S, V105L
notes: human IgG4 Fc (H4H)
B9: H4H2354S (antibody, human IgG4, V domains shown)
VH: B6 VH with E1Q
VL: B6 VL with M4L
notes: human IgG4 Fc (H4H); also called H4H2354S-1
B10: H4H2350P (antibody, human IgG4, V domains shown)
VH: QVQLQESGPGLVKPSETLSLTCTVSGGSISTYYWSWFRQPPGKGLEWIGYIYYSGSTNHNPSLKSRVTISVDTSKNQFSLKLRSVTAADTAVYYCARVGPVGWGSWGNFDYWGQGTLVTVSS
VL: DIQLTQSPSFLSASVGDRVTITCWASQGISSYLAWSQQKPGKAPKLLIYAASTLQSGVPSRFSGSGSGTEFTLTISSLQPEDFATYYCQQLNSYPWTFGQGTKVEIK
notes: human IgG4 Fc (H4H)

Target: T1, cynomolgus GFRα3 on …
Test: cell-based or functional assay

IC50 (SRE-luc, HEK293/MfGFRα3/MfRET cells, 500 pM human ARTEMIN-MMH) [nM]	Binder
1.8	B1
2.5	B2
1.5	B3
0.8	B4
0.7	B5

target: T4, human GFRα1 expressed with only a C-terminal human Fc tag (human); test: BLI Octet, antigen captured on anti-hFc tips
T4 construct: also called hGFRα1-hFc
Method: (§1) The ability of anti-GFRα3 antibodies to bind to GDNF-family receptors was assessed using an Octet Red biosensor (Fortebio, Inc.). Antibodies were tested for binding to either human GFRα1 expressed with a C-terminal human Fc tag and a hexahistidine tag (hGFRα1-hFc-6His, R&D Systems #714-GR), human GFRα1 expressed with only a C-terminal human Fc tag (hGFRα1-hFc; SEQ ID: 376), human GFRα2 expressed with a C-terminal human Fc tag and a hexahistidine tag (hGFRα2-hFc-6His, R&D Systems #613-FR), human GFRα3 expressed with a C-terminal human Fc tag (hGFRα3-hFc, SEQ ID:371), or an irrelevant human Fc tagged protein. Antigens were captured onto anti-human Fc sensor tips from 10 ug/mL solutions for 5 minutes. The coated sensor tips were then blocked with a 100 ug/mL solution of irrelevant human Fc antibodies for 5 minutes. Blocked sensor tips were then submerged into wells containing […] of each anti-GFRα3 antibody or buffer alone for 10 minutes. The experiment was performed at 25° C. with a flow rate of 1000 rpm using HBST+BSA buffer (10 mM HEPES, 150 mM NaCl, 3 mM EDTA, 0.05% w/v Surfactant P20, 0.1 mg/mL BSA, pH 7.4). The binding response (measured in units of nm) at each step of the experiment was monitored and recorded.

binding result	Binder
no binding (tested: 100 ug/mL)	B1
no binding (tested: 100 ug/mL)	B2
no binding (tested: 100 ug/mL)	B3
no binding (tested: 100 ug/mL)	B4
no binding (tested: 100 ug/mL)	B5

target: T2, human GFRα2 expressed with a C-terminal …; test: BLI Octet, antigen captured on anti-hFc tips
Method: as §1

binding result	Binder
no binding (tested: 100 ug/mL)	B1
no binding (tested: 100 ug/mL)	B2
no binding (tested: 100 ug/mL)	B3
no binding (tested: 100 ug/mL)	B4
no binding (tested: 100 ug/mL)	B5

target: T5, human GFRα3 expressed with a C-terminal hFc tag (human); test: BLI Octet, antigen on anti-hFc tips, 100 ug/mL Ab
T5 construct: also called hGFRα3-hFc
T5 sequence (chain, as listed by the source limits assumed): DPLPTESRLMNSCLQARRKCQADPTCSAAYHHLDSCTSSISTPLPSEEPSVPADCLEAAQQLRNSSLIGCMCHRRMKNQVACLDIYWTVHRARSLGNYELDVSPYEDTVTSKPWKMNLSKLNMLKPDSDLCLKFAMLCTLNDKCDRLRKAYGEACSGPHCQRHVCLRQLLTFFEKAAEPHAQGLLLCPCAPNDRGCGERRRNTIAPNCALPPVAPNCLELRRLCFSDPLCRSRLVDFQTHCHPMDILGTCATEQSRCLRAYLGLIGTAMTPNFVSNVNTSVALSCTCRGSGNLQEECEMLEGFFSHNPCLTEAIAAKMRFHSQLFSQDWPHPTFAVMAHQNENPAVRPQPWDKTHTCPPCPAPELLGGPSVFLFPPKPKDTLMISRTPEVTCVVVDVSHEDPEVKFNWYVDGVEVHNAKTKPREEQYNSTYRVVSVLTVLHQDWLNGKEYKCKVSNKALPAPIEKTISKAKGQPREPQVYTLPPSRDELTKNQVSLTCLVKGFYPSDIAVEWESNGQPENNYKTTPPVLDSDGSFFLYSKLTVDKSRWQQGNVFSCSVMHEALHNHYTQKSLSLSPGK
Method: as §1

Bound (nm)	Binder
1.18	B1
1.59	B2
1.04	B3
1.11	B4
1.17	B5

target: T4, human GFRα1 expressed with only a …; test: BLI Octet, antigen on anti-hFc tips, 100 ug/mL Ab
Method: as §1

Bound (nm)	Binder
0	B1
0.06	B2
0.05	B3
0.03	B4
0.04	B5

target: T3, human GFRα1 expressed with a C-terminal …; test: BLI Octet, antigen on anti-hFc tips, 100 ug/mL Ab
Method: as §1

Bound (nm)	Binder
-0.01	B1
0.08	B2
0.03	B3
0.03	B4
0.03	B5

target: T5, human GFRα3 expressed with a C-terminal …; test: blocking ELISA 1, hGFRα3-hFc to coated hARTEMIN-mmH
Method: A constant amount of human GFRα3 fused with a C-terminal human Fc tag (hGFRα3-hFc; SEQ ID:371) at 120 pM was pre-mixed with varying amounts of antibodies, ranging from 0 to ˜10 nM in serial dilutions, followed by an 1 hour incubation at room temperature (RT) to allow antibody-hGFRα3-hFc binding to reach equilibrium. The equilibrated sample solutions were then transferred to the hARTEMIN-mmH-coated plate. […] Absorbance was recorded at 450 nm on a Victor X5 plate reader (Perkin Elmer) to determine the amount of free hGFRα3-hFc in the pre-equilibrated hGFRα3-hFc-antibody solutions that was able to bind to the plate coated with hARTEMIN-mmH. IC₅₀ values, defined as the concentration of antibody required to reduce the signal from a constant concentration of hGFRα3-hFc by 50%, were calculated from the data using Prism software from GraphPad. The absorbance measured at the constant amount of 120 pM hGFRα3-hFc in the absence of anti-GFRα3 antibody is defined as 0% blocking and the absorbance with no added hGFRα3-hFc is defined as 100% blocking. The observed absorbance in the wells containing the highest antibody concentration was used to calculate the maximum blocking percent shown in the table.

% max blocking [%]	IC50 [nM]	Binder
81	0.0438	B1
89	0.723	B3
94	0.133	B6
92	0.0978	B7
93	0.26	B8
92	0.116	B9
93	0.496	B10
